FireProtDB (doi:10.1021/bi0512400)
“And” between values parts separate entries of the source, which are not always exact repeats. Equal values may be shown once.

B1: Alpha-lactalbumin, P00712 (parent)
chain: MMSFVSLLLVGILFHATQAEQLTKCEVFQKLKDLKDYGGVSLPEWVCTAFHTSGYDTQAIVQNNDSTEYGLFQINNKIWCKDDQNPHSRNICNISCDKFLDDDLTDDIVCAKKILDKVGINYWLAHKALCSEKLDQWLCEKL

Variants of: B1
Settings: Capra hircus, pH 7.5, 25 °C, GdnHCl, CD, Tris 20 mM, Ca2+ 10 mM, structure 1HFY, whole UniProt chain shown

| Variant | ddG of mutation (higher = less stable) [kcal/mol] | denaturant m value [kcal/mol/M] | unfolding free energy [kcal/mol] | denaturant m value (transition: 3) | unfolding free energy (transition: 3) |
| --- | --- | --- | --- | --- | --- |
| W45F | 2.4 | 2.81 | 7.84 | 1.65 kcal/mol/M and 1.16 kcal/mol/M | 4.18 kcal/mol and 3.66 kcal/mol |
| W137F | -0.16 | 3.06 | 10.4 |  |  |
| W79F | 1.27 | 2.65 | 8.97 | 1.51 kcal/mol/M and 1.14 kcal/mol/M | 4.98 kcal/mol and 3.99 kcal/mol |
| W123F | 2.27 | 2.8 | 7.97 |  |  |
